Assay results published in patent publication US20110086029A1 (University of California, published 2011).
Values belong to the binder of their own block, whether it stands above or below them.

Molecular target: T1, murine N-Cadherin (murine, UniProt P15116 160-724, limits assumed)
T1 construct: The assay used to show cross-reactivity is not described
T1 sequence (looked up): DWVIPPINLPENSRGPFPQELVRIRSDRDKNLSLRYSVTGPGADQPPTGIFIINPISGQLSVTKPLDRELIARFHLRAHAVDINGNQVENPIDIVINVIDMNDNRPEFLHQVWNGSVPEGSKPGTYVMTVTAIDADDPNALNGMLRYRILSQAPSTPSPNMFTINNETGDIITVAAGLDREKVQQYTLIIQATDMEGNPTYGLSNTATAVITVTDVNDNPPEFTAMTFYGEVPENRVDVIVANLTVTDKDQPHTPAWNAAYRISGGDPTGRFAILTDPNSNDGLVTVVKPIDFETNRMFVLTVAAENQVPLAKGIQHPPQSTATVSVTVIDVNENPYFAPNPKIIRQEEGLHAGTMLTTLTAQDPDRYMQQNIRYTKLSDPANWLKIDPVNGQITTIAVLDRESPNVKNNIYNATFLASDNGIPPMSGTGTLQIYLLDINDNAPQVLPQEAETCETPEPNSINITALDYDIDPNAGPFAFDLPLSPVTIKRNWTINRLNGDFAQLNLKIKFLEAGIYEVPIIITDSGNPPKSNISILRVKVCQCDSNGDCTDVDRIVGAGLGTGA
Assay: assay not described

binding result: binds
B1: N-Cadherin antibody EC4 (monoclonal antibody produced by mouse hybridoma ATCC Accession No. PTA-9388) (antibody, V domains shown)
VH: QVKLQQSGAELARPGASVKLSCKASGYTFTSYWMQWVKQRPGQGLEWIGAIYPGDGETTYTQKFKGKATLTADKSSSTAYMQLSSLASEDSAVYYCAKGDGYWAMDYWGQGTSVTVSS
VL: DIVMTQTPLSLPVSLGDQASISCRSSQSLVHSNGNTYLHWYLQKPGQSPKLLIYKVSNRFSGVPDRFSGSGSGTDFTLKISRVEAEDLGVYFCSQSTHVPLTFGAGTKLELK
notes: Mouse hybridoma monoclonal antibody

binding result: binds
B2: N-Cadherin antibody 1H7 (monoclonal antibody produced by mouse hybridoma ATCC Accession No. PTA-9387) (antibody, V domains shown)
VH: QVQLQQSGAELVKPGASVKLSCKASGFTFTDYLIQWVKQRSGQGLEWIGWFYPGSGSIKYNEKFKDKATLTADKSSNTVYMEISRLTSEDSAVYFCARRGDWGGFFDYWGQGTTLTVSS
VL: DIVLTQSPAIMSASLGERVTMTCTASSSVSSSYLHWYQQKPGSSPKLWIFSTSNLASGVPDRFSGSGSGTSYSLTINSMEAEDAATYYCHQYHRSLTFGAGTKLELK
notes: as for B1
